This is an account of results in patent publication US20230340439, “SYNTHETIC MINIATURE CRISPR-CAS (CASMINI) SYSTEM FOR EUKARYOTIC GENOME ENGINEERING” (The Board of Trustees of the Leland Stanford Junior …, published 2023).

Data set [1] concerns the target T1, dCas14-VPR (dUn1Cas12f1-VPR) (UniProt A0A482D308 SEQ:1-529).
T1 chain: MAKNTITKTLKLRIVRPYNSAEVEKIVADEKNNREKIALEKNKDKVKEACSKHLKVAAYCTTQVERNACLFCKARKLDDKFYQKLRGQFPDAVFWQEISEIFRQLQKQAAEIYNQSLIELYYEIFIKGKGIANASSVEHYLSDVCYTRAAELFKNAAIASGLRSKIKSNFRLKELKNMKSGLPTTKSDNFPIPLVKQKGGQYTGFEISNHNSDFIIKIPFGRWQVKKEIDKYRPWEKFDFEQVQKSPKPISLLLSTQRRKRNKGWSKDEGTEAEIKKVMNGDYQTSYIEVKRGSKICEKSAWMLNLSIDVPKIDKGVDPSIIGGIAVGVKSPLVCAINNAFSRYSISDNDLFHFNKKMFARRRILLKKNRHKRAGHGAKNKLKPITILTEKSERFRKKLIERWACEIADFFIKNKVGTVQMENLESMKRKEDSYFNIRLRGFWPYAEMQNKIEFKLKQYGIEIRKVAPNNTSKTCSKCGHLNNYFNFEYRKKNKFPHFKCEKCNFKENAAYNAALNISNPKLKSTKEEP
Put plainly: cell_activity; GFP activation, 3% GFP+ cells; PAM TTTR. The note with it: chain copies: 2. The method, then:
(§1) Using a doxycycline (Dox)-inducible TRE3G-EGFP HEK293T reporter cell line and a sgRNA targeting the promoter, activation efficiency of dCas14-VPR was measured. Wild-type HEK293T cells (ATCC) and the HEK293T TRE3G-GFP reporter line stably encoding EGFP under a Tet-On promoter (pTRE3G) (Y. Gao et al., Genome Res. 22, (2012): 1760-74) were cultured in DMEM with high glucose, sodium pyruvate and GlutaMAX (Thermo Fisher), additionally supplemented with 10% FBS (Sigma). Cells were grown at 37° C. and 5% CO₂ and maintained at confluency below 80%. All transfections were performed with TransIT-LT1 transfection reagent (Mirus) at a ratio of 3 µL reagent per µg of plasmid. Cells were plated 1 day before at 1×10⁵ cells/mL. For this and other GFP activation assays described in these Examples, 500 ng of dCas constructs and 250 ng sgRNA or crRNA plasmids were transfected to HEK293T TRE3G-GFP cells in 24-well plates. Transfected cells were analyzed 2 days post-transfection for GFP activation. Here, no reporter activation was observed (FIG. 3), implying the natural Cas14 system fails to function in the human genome context.

Another data set has as its target T2, dCasMINI-V1-VPR (D143R) (UniProt A0A482D308 SEQ:1-529).
T2 chain: T1 chain with D143R
In words: cell_activity; GFP activation; PAM TTTR. As to conditions: chain copies: 2. The method, then:
as §1

The target in data set [2] is T3, dCasMINI-V2-VPR (D143R/T147R) (UniProt A0A482D308 SEQ:1-529).
T3 chain: T1 chain with D143R, T147R
Put plainly: cell_activity; GFP activation; PAM TTTR. As to conditions: chain copies: 2. As for the experimental part:
as §1

Data set [3] deals with T4, dCasMINI-V3-VPR (D143R/T147R/K330R) (UniProt A0A482D308 SEQ:1-529).
T4 chain: T1 chain with D143R, T147R, K330R
Put plainly: cell_activity; GFP activation; PAM TTTR. The method, then: as §1

Data set [4] addresses T5, dCasMINI-V4-VPR (D143R/T147R/K330R/E528R) (UniProt A0A482D308 SEQ:1-529, D326A,D510A).
T5 sequence: T1 chain with D143R, T147R, K330R, E528R
In words: cell_activity; GFP activation; 1.15-fold over V3 in screen; PAM TTTR. The note with it: tags: N-terminal SV40 NLS, C-terminal c-Myc NLS, mCherry.

Where a chain is given by its changes, count along the chain named.

B1: sgRNA Design 2 (stem-loop truncation) targeting TRE3G ; TRE3G promoter target (ssRNA ; dsDNA)
RNA: GGGCUUCACUGAUAAAGUGGAGAACCGCUUCACCAAAAGCUGUCCCUUAGGGGAUUAGAACUUGAGUGAAGGUGGGCUGCUUGCAUCAGCCUAAUGUCGAGAAGUGCUUUCUUCGGAAAGUAACCCUCGAAACAAAUUCAUUUGAAUGAAGGAAUGCAACCUCCCUAUCAGUGAUAGAGAACG
DNA 1: TTTACTCCCTATCAGTGATAGAGAACGTAT
DNA 2: ATACGTTCTCTATCACTGATAGGGAGTAAA
modifications: [-]
Regarding B1, the activity in data set [1] was 3.6 fold over non-targeting; in the data set with dCasMINI-V1-VPR (D143R), over 24 fold over dCas14-VPR; in data set [2], 1.55 fold over best single variant; in data set [3], 1.26 fold over D143R/T147R; in data set [4], 244 fold activation.
